Results taken from the DeepSol protein solubility set.

Assay: soluble on expression in E. coli; label from the status in PepcDB or PDB records

Sequence | soluble on expression in E. coli
MRYGFMKVAAAVPFVKVADCEYNIERIDRMVHEADAKGVEIMTFPELSITGYSCGDLFFQPFLQERANEALCRLVEQTANTTVMVIVGMPLRVEEKLFNSAVVFQQGKILGAIPKTYLPNYREFQEARWFSPAHTLQYSTISIGQHSVPIGRNLIFKCGTVGVGIEICEDMWTPFTPGTRLCLYGAEVIFNLSSSNENAGKHSYLRSLISGLSSQGICAYVYASSGYGESSTDIVFTGKAFIAEAGEIVEEMERFRYEERMIISDIDVSRIQTERLINSSFKAAVTFHTHDEKFNQLPFKLRSRQESLPMTRRVDRNPFMPEDKDRKERSREMINIQVCGLMQRLLHMGAEHAVIGISGGLDSALALIVCAQAFDRLDLPRKNIIAVTMPGFGTSDRTYRNAFALMEAIGVTIKEIDIKEACLRHFEAIGHNPEVQDTTFENTQARERTQILMNLANIYNAPVIGTGDLSELALGWVTYNGDHMSMYAVNAGIAKTTVQILVDHIAHSGWLDEAASAVLLDIVRTPISPELKPVGQLEHHHHHH | not soluble
MSLRPTEYIDLHCHLLPGLDDGPQQLAQAVEMARQAVADGIHYVLATPHHLDRRYQNTGLVVERSVAELQAELKRQQIPLTVFAGQEVHLRDDLATALPHLLGIDVGRRYLLLELPHEQVPNYVAQVIFELLQQGTTPVIAHPERNAQIMAQPERLYDLVQQGCLAQLTAGSLVGQFGRAVKSTALELVECGLVQVIASDAHLMARRGFMMRAGYQALARLDSTNPASFAVNARLLLNGDPVVLGEVLRPNQRRKFWLFEGHHHHHH | not soluble
MASLAKNLKNVTPNVRRAVVTWDKAERIQRNEEIFKNSESVVHRLPEHYKTRYWETILSDKTPVHYRPPTSRFAHDSFKNVEIELEENPIIGIRTPEGDDGLWGGERVVKGWIESAPYTKKKILPRYWVPKLFFPALKNVVLYSEILDKYIKVTVTERAMRLIDEHFGLDYYILESKEIDLDSKFANSLKREMLLTLTTESYYEENDEKKAYIKEKYADFVIPEREAEWIGLELNEAARKQQDMEDSTAPEPLKYKFEQSLLERLRDGTDEISQELENPEAPMKTESKFGDKMFGKYLNPIGKKLRSATN | not soluble
MIICKTPREIEIMREAGRIVALTHQELKQHITPGITTKELDQIAEKTIQKYGATPSFKGYNGFPGSICASVNEELVHGIPGKRKLKEGDIISIDIGAKYNGYHGDSAWTYPVGNISESVQKLLDVTEKSLYLGLEQVKPGERLSNISHAVQTHAEENGFSIVREYVGHGIGQDLHEDPQIPHYGPPNRGPRLKPGMVICVEPMVNQGRRYVKTLSDDWTVVTVDGKWCAHFEHTIALTEAGYEILTTL | soluble
PLESCVRLHSSSGTTGNPTVMLYTQNDLDNWSKLMARCMSLSGANRHDIFQNIMGYGLFTGGIGFHYGAERLGMLTIPIGPGNSKRQGWFMKHLGVSVVHILPSYAFRLYSHLKEEGVDPKELPLRIAFIGAEPHSEAMRREIERLYGIKAFNSFGLSEMNGPGVAFECQEQSGMHLW | not soluble
MVHPAFQVFTDALRQRFGEALDAVVLYGSCLHTSDLTEGIADFYVLVSDYRLAYSGRLLAGLNAWLPPNVFYLEVPAAAGVMRAKYAVISTADFERGARQWFHPYIWARFAQPARLLYARDDQTGKRVHTAQASAVLKFISTTLPVLESGPSDLEMIWASGLMLTYAAELRAEREARARHLVRIDPEIYSRLTAAAMPALIPLLSLQADGRYHIGPITPLKRLSARIHWRLRRWQGRVLSVLRLSKATMTFRDCLDYAAWKIERHTGIKVEITPMLRRHPILWGYKVMWQLLRRGVLRLEHHHHHH | not soluble
MSVIYKVVTRPSDPRVPNSPKKYYPHLITLGQSVNLKYIAQKMQGYSSLSIGDIKSVIQNFVEKMKEQLLEGKSVNIEGLGVFMLTACSKGADAAKDVNAKSVDSVRIFFQANKELRITKTATRADEKLDLISLDEYLKKLNASVTPNDPDDGENGGGGNEGGDEEAPDPTV | not soluble
AIADPAEVEFLAEKEMVKIIPNFSLDKIYLIGGDLGPFNPGLPVEVPVWLALNLKQRQKCRIVPPEWMDTDKLEDIREQERKLDTFTPIPNPYYMELTKLLLNHAADNIPKADEIRTLVKDIWDTRMAKLRLSADSFISQQEAHAQLDNLTLMEINTTRSFLLDSLNYMYKLRSNLQPGRSKDY | soluble
MDGELRALLNAVLERLDVQGVYIEQMRMDIVKLQGSVKQLEDKVDRIQSDVEAMKKDMDAMKKDMDAMKKDMLGVKKDVAALKEGQVRQEKIMERLAIRSIEQEAEIDELRKEISA | not soluble
MQQINFYRQRVAINVLAKDIANAKAIYEAAEGHAVIGVLSAQFATVEEGVPEVKRWMAEVPSISVGLGAGDPAQYYKAAMIAAHTHPAHVNQTFTGSGFAAGALAATGGEQTHINALVSPTGTPGEVVISTGVSSSQGTPARVSCEAAVRMMQDMGAHAAKFFPMGGEKSLPELYALATTAARHGMTLIEPTGGISLDNFGIILQTCLEAGVPRVMPHVYSSIIDPQTGNTRPEDIIRLMEIVKALV | not soluble
MNQLIFDFAAHDYPSFDKFLGTENAELVYVLRHKHGQFIYVWGEEGAGKSHLLQAWVAQALEAGKNAAYIDAASMPLTDAAFEAEYLAVDQVEKLGNEEQALLFSIFNRFRNSGKGFLLLGSEYTPQQLVIREDLRTRMAYCLVYEVKPLTDQEKIDALASMAAARQVTVDSEIFEYLLKHWRRDMDSLMMMLDTLDNYAVTMGKRITLPLLRQLLKQQETQLEHHHHHH | soluble
MSLTTVRMTIPDDFILGAAASAWQTEGWSGKKPGQDSWPDLWYKNDRHVWHNGYGPAVATDFINRFQEDVQLMKLAGLTHYRTSINWSRFLTDYENVTVDEEYAAYYDQLFDALLANGITPMICLEHYELPGYLLEKYGGWGSKTVVELFVRYAEKVFARYHPKVTRWFTFNEPIVVQTRVYLDALRWPYEQNTSTWMQWNYHKVLATASVVKRFRELGYPGTIGCILNPEVTYPRSRAPHDLRAAEIYDLFYNRMFLDPLVHGVWPPELLALLEQHQVTWETSEEDLAVIREHTVDELGINLYYPHRVKAPSRAWHPHTPFHPAWYYEPFELPGRRMNASRGWEIYPQIIFDMAMRIKNDYRNIPWFVAESGMGVENEGQFRNREGVIDDSYRIRFISEHLWHTLRAREAGANCQGYMLWAFTDNVSPMNAFKNRYGLIEIDLQNHRARRAKASAHWFRQLGERRELVLDEGHHHHHH | soluble
MGSDKIHHHHHHKKAVINDSNTPLHLLQPAYQGTYGDLTPEQVKKDIDRVFAYIDKETPARVVDKNTGKVITDYTAMGDEAQLERGAFRLASYEWGVTYSALIAAAETTGDKRYTDYVQNRFRFLAEVAPHFKRVYEEKGKTDSQLLQILTPHALDDAGAVCTAMIKLRLKDESLPVDGLIQNYFDFIINKEYRLADGTFARNRPQRNTLWLDDMFMGIPAVAQMSRYDKEAKNKYLAEAVKQFLQFADRMFIPEKGLYRHGWVESSTDHPAFCWARANGWALLTACELLDVLPEDYPQRPKVMDYFRAHVRGVTALQSGEGFWHQLLDCNDSYLETSATAIYVYCLAHAINKGWIDAIAYGPVAQLGWHAVAGKINEEGQVEGTCVGTGMAFDPAFYYYRPVNVYAAHGYGPVLWAGAEMIRLLNTQHPQMNDSAVQYYQEKQKTTAPIFAVDSE | not soluble
MGSDKIHHHHHHMTSSLQKLFTFDEFLDFLVTQPENIRYELHDGNIIQMPPPLGQHEQIVAFLTMILGYECLRLKLNYGIPKNATVKPENRTSGYYPDVLLINFSNLINEALWEKQSILSHPDSIPLVIEVVSTNWRDDYHKKLADYEEMGIQEYWIVDYAALGSKELIGDPKQPTITIYSLSDEGEYRGKQFRGDDRIESPTFSNLNLKVEQIFHCVIE | not soluble
GSMTDGDYDYLIKLLALGDSGVGKTTFLYRYTDNKFNPKFITTVGIDFREKRVVYDTQGADGASGKAFKVHLQLWDTAGLERFRSLTTAFFRDAMGFLLMFDLTSQQSFLNVRNWMSQLQANAYCENPDIVLIGNKADLPDQREVNERQARELAEKYGIPYFETSAATGQNVEKSVETLLDLIMKRMEKCVEKTQVPDTVNGGNSGKLDGEKPAEKKCAC | soluble
MARFSSVLIYDGECPYCSVAAKALEQVDDIGAISWYDESAQSFLTAQFDEPPFAMVLVDRPAQQVYAGRAAAEELAGRAGLPDLVGSLVRDNYEKIAHVVGLASGRGLEHHHHHH | not soluble
MSLSPVPPPLVRVAPSLFLGSARAAGAEEQLARAGVTLCVNVSRQQPGPRAPGVAELRVPVFDDPAEDLLAHLEPTCAAMEAAVRAGGACLVYCKNGRSRSAAVCTAYLMRHRGLSLAKAFQVGGPLGGRCFERGVSSGDEFSGRGRLRDWDRHFREGRVSLMVKSARPVAEPNPGFWSQLQKYEEALQAQSEGHHHHHH | not soluble
GSYTLSEKDLKELDSIRDSFQCMNEPLDNDQQASTLAKKEHNPTDILNVMDITMRRLVKMAKRLGAFNEISEAGKFSLLKGGMIEMLTIRGVTVFNADKGVWQTPVDGHSQISFNMFDKLRPDIKDTQKKGFLHFFNLLHSDVRKNDLAIDIIVLMVLFDSKREGLVSQQDKETVEKLHRNYESLLHRYLYSIHKEEAEQRFASIPKALVALRKVAENAVTLFLGAGNTTEAASLPKEFFATNY | soluble
MAIPGNMWIYDDGGALIKGGCDVADREFSIEFKGFHHNLSIPTDHATGKPTGTRQHSPMIIVKEFDYSSPYLYKAVATGQNLKSAEIKWYKISDAGQEVEYFNMLLEGVRIVSISPTMASPEDKNNNHLESVELRYEKITWKHCDGNIIFTDAWNERQTA | not soluble
MSLANRIRLHIWGDYACFTRPEMKVERVSYDVITPSAARGILSAIHWKPAINWVIDKIYVLKPIRFESVRRNELGAKISESKVSGAMKRKSVADLYTVIEDDRQQRAATVLKDVAYVIEAHAVMTSKAGVDENTTKHIEMFKRRALKGQCFQQPCMGVREFPAHFALIDDNDPLPLSQLSESEFNRDLGWMLHDIDFEHGNTPHFFRAELKNGVIDVPPFYAEEVKREGHHHHHH | soluble
MREETFPGDIAQYFSVIHRAFLKDTKGEYAKYDLNPTNAYILLYLFFNKNSSQSELAQKLVINKGQITRETTKLLSLNFISKEISSKNRTTNVIAISSDGKKVIKKIIDIRNQWWEEKLKLSGVKTNSEFLDSLKKLESILN | not soluble
MAHHHHHHMEGARGSTLQVCGERHTMSLSLATALYADATRLYRLGDLHHARGAAEEALLSLSHSPHSDISDHTNHRHGDAHHEEAADSVSVGCEGSQAQQRQRHRLFGNTLLLLSSIYMAVQDYAEAERLLVTCDGYWRERLTSTHTRLSSVGTSAEVECACCSELDEGLAGVAYNRAVLRLEQLRRTPSFPASRDDGELWVAPPADLCGTDARLTYSLIPLSSTAASSGTPETLLASVMALLLDAQDRLAHTLGPPRGLLADVLHTIGVCHYEAADYIAALQAWQRSMAIRVHLQALRRRSDKNAAQRALHGGGGGECGDGTEELKLALTMEHVAQVYRLLEGRSVEALKLLDTVAATRRRYLGPTDPLCVRTLVLKGVLAAELGHTQLARALLERCSAIGGDASPETPPPSSSAYAVQEVEQ | soluble
MAAQRLGKRVLSKLQSPSRARGPGGSPGGLQKRHARVTVKYDRRELQRRLDVEKWIDGRLEELYRGMEADMPDEINIDELLELESEEERSRKIQGLLKSCGKPVEDFIQELLAKLQGLHRQPGLRQPSPSHDGSLSPLQDRARTAHP | soluble
MGHHHHHHSHMGAGLSADRRRSLCAREFRKLGFSNSNPAQDLERVPPGLLALDNMLYFSRNAPSAYSRFVLENSSREDKHECPFARGSIQLTVLLCELLRVGEPCSETAQDFSPMFFGQDQSFHELFCVGIQLLNKTWKEMRATQEDFDKVMQVVREQLARTLALKPTSLELFRTKVNALTYGEVLR | soluble
